Results as given in the DeepSol protein solubility set.

Assay: soluble on expression in E. coli; label from the status in PepcDB or PDB records

Row | Sequence | soluble on expression in E. coli
1 | MGSLKIYPSKLSGDVKIPPSKSMAHRAVICSSLSNGKSRISNIDFSDDIIATIRAMTSLGAIIEKKEDILEISGIFSKEGILNRENQLNQPKLTIDCNESGSTLRFLVPISLAFDGVKRFIGRGNLGKRPLDTYYEIFDRQNIKYSYKENQLDLIISGKLKPDEFRVKGNISSQFITGLLFILPTLESDSKIIITTELESKGYLDLTLSTIKDFGVEIINNNYKEFIIKGNQTYKARDYKVEGDYSQGAFYLSADAIGEDISILDLKEDSLQGDSEVVEILSRMGMEILREGNKIKGITNGLNGTLIDASQCPDIIPVLSVVASLSIGKTTIINAGRLRIKECDRLHAINVELSKLGANIEEKEDSLIIEGVSKLNGGVEVWSHKDHRIAMTLAIASCRCDKPIILKDFECVSKSYPHFFKDFKMLGGRIDEWNMGK | not soluble
2 | KLIAATGCPTGIAHTFMAQEALEQAAKEKGVSIKVETHGQVGVENELTPAEIAGAKAVIIAADKDVQAERFAGKRVIEVSVADGIKKADQLIADALAGKGQIK | not soluble
3 | MMTVLRSQIESILLVVDQPASVAALARATEAAPETVTSVLRSMAQEFEDRGSGIEVRESPEGWRLYTVKRNADVVEKFLLDGSHTKLSRAALETLAVVAYRQPATRAQVAAVRGVNVDGVMRTLQLRGLIREVAINPGTEGVNGSAHRYETTELFLDLLGIDSLERLPDLAPLLPDIDSIDEYF | not soluble
4 | MAHHHHHHMKVDSLLSPRSAFSTENDPCGSVESVANDVASASDVVVAYPQPGKRWSRIIAGPELVGMSLKENQIKDGKALCIYGHCFDDGIIDYITNEVLPEARVLTKVEIAETKFSSAGMKILLRALWTNSPCEQMEELLLHDVHLHFEETLQLKEVIMKNRKCLRRLVLQRCHMDDSAAEPIVQAISHCEQLREVNFLDNNIVHALAIPTEREDIFPPTLQIFDISGNRIEPKHFTGLGNALRRCMANLHEVYLARCCVTESGLKTLLCGGLYNSQVLSVLNVSAGRLLHTAGKVLSSVISECPNLQRVYMQDNLLDVEGAAQIALVIPYAKKLTVLGMGRCHLGGRGARYIAEAVKQSASLRELDLSGNGVTDEDVHRICACNDDASFRLSYLDLSDNPLTEDCRCSLETLLEHQKDNSCIVVVRGTGLAVVSSYMEYHNKPTPG | not soluble
5 | MGSDKIHHHHHHMARKISDYHLKKREETQKKFIDLLAQNNYIHISGDMVNSKTKVKVRCRHNHTWQVNYEHFKKGTRCPECRIIEGSLKKRLNISTVKSRYALKGYEILSTYKNCHSKLKAKCPEGHIWEHLPSNFFKGEECFQCKGAKKYTVECAQAAFSDRGFIPLFDTYHHNKENLPFLCKEHIDLGVQYAPLHNMVRGLANCRKCYLLLFTGENSSRWKGGISSLNKTLREAVYEVWTKPSLEKYSFKCAITNSTKDLHVHHYKKNFSEIVKEALSNLSFEL | not soluble
6 | MLSALRTAGAVGTRRLASTQAIASNSEAPKGIATTGTPFLNPSSKAEYALARLDDVLNLAQRGSIWPLTFGLACCAVEMMHFAAPRYDMDRYGVVFRASPRQADLIFVAGTVTNKMAPALRRIYDQMPEAKWVISMGSCANGGGYYHYAYSVLRGCDRVIPVDIYVPGCPPTAEALLYGVLQLQKKIKRKREAQLWYRR | not soluble
7 | MSVVALVLAAGSSVRFGADKRRSLMADGRSLLVHSVESACAVFDDVRVVLREGERGVDLGLPARCRVVSSPNFTLGMGHSLAAGAASLADSEAQAVAILLGDMPWVASATLDLLAREASGSTIVLPCHAGRQGHPVLFGRDFWPALARLKGDEGARSVVKANPAVCVRLEVQDAGVLQDVDRPDAVRPLEHHHHHH | soluble
8 | MNSAPLLVDPSTQSATVVAETQPFGDRCMLESLIRRPFCMNPQLQTHPYDRQPTTAPRLQMMPRRDQTQNPVIAELMSTVTRVRDRKRQRDEEAMYPRRSVGLQTDTEDVSEVLDGGTRISDMKRVRREELLDQSSLDGITFETSGTNTSDEPHSQIITSNSSSLPSTSASSSSDRPRAMRSNQEMRQARRARRQRQTQHESQRMQLEHRLQQITGPVPGSEHNCMTGCPHLHQQQQQQHQQPLLHIQLNPIPPQPQTGPNSVSPTIAPGAMLRAHPLASTFPYFSLPLTQNYPVMMVLPMAAVAQQHAAAAAAVVAVAAAAAVPQPPPPPPQPTLHAPVPIRPQNNPYNLYAFRNSPINVHAPGYVGEYVELFRSQQFLFPTSERYGIDRHHMFGGLDLDLPVGASKVEIDTFTIPTVYAKKTDGEEDEDTCTVCLSSFEDGESIQKLRCNHVFHPECIYKWLDINKRCPMCREEIDRPESLRTQPGL | not soluble
9 | SVKRLFKVRSDLDFAEQLWCKMSSSVISYQDLVKCFTLIIQSLQRGDIQPWLHSGSNSLLSKLIHQSYHGTMDTVSLSGTIPVQMLLEIGLDKLKKDYISFFIGQELASLNHLEYFIAPSVDIQEQVYRVQKLHHILEILVSCMPFIKSQHELLFSLTQICIKYYKQNPLDEQHIFQLPVRPTAVKNLYQSEKPQKWRVEIYSGQKKIKTVWQLSDSSPIDHLNFHKPDFSELTLNGSLEERIFFTNMVTCSQVHFK | soluble
10 | MAKLGPAGYSPYPVAVTEGVLTPPPGKALMFNEIVDEEIAMREAAKAMLTRDNPTIFPGPQVLYAWNEEAKEKAKLVRKMAEVLGAKIIPMYDYRPKYPKIDPEKEINPNHPNLTIWHNKIKACIFIGVHCHYANVALKIIRAETDCFTIAMCSMAGHEDAMITLRDQHVEDLEKFIKIAEEVKKELGK | not soluble
11 | MNKVSVVLPTYNCGTYVGVAVESVLQQTYSNYELIIVNDGSTDETDQALAPYLCNNGHIRYIKQGNKGHAGARNTGIRAATGDVIAFIDSDDKWLPEKLGEQVQAMEEDPEVGLVHCNVYGFGENQEVQVRGPLLTQEQLQGYSGYIFDNLYFRKIIITTTTVMIRKSCIDDVGMFDENMTRYGSEDRELFLRILWKYKARYVNKPLAMYRNRSDSEGQNYERMIKGQEYVYEKITSLYGLPQSSKRAVMSKMYQEWAREFYAKGRFADGLTNQVKAIRANPIDMNAYFALKRYARFLFSRATLEHHHHHH | not soluble
12 | MGSDKIHHHHHHMIGKFFASINLSDVAAMAGIPISFMTAYSISPEIEISFLEDIESGIMKVLKMYDVDFIGGDLKEGMDLILTGIAIGKQKKTLTRKRSDIGRKQMVAYTNKLGRAASGYIFYKSGYDSVEGINMMLGITPRLEEARIISEYGAKFMMDLSDGLYSSLNQMKADYGVGFKIVEDEVVYDDSARKAAEISGASVYDIACGYGGDYELLFTVPEENYRDFAQAMESNNIEVHFIGETWEGENIVFDGKTWTKMKDEGYEHFRPKPQLGEIR | not soluble
13 | MRWEELSEQPCSLARVLAILGDRWTLLVLRDCFLGVRRFDDFERSLGVTRHVLADRLKRLVEAEILAKVPYQERPLREEYRLTEKGMELYPAILSLVNWGDRHLAGVEGPPLEHVHKHCGQHMHGVLVCSECGEPLHARDVTVREGLFWKGRLLRRG | not soluble
14 | MGSDKIHHHHHHMNIAMFSDTYAPQINGVATSIRVYKKKLTERGHKVVVVAPSAPEEEKDVFVVRSIPFPFEPQHRISIASTKNILEFMRENNVQIIHSHSPFFIGFKALRVQEEMGLPHVHTYHTLLPEYRHYIPKPFTPPKRLVEHFSAWFCNMTNVVIAPTEDIKRELESYGVKRPIEVLPTGIEVEKFEVEAPEELKRKWNPEGKKVVLYAGRIAKEKNLDFLLRVFESLNAPGIAFIMVGDGPEREEVEEFAKEKGLDLKITGFVPHDEIPLYYKLGDVFVFASKTETQGLVLLEALASGLPVVALKWKGVKDVLKNCEAAVLIEEENERLFAEKIKHILKNDRLREELSTKGREFVRKEWSVDRFVQRLEEIYTRAIEEGPVEINTSLMIKEFVKFEKLKEFFSKIEDRIWR | not soluble
15 | MGHHHHHHSHMNIPLEELQRNLQFHAFISYSGHDSFWVKNELLPNLEKEGMQICLHERNFVPGKSIVENIITCIEKSYKSIFVLSPNFVQSEWCHYELYFAHHNLFHEGSNSLILILLEPIPQYSIPSSYHKLKSLMARRTYLEWPKEKSKRGLFWANLRAAINIKLTEQAK | soluble
16 | MLPLSSVELTDIKTDDLDIKWDNVQQFKLGDGSYADVFHVFYKGHDAVLKRSIKEYTDKERENIRREARVVAALNNCENVVRIYGICETLPFRGMIMEYCAGPNLSELVFQLDECKVKFETLRIFKWCHDLTRTLCELNVTYYHGDVKAKNVLVKERPCCCVEGIYENVKIRNTTYSLCTICNGVHLEHLSLKICDFGMSYEHKDKRLYNGGTREFSAPETIRGIYTEKSEVYSFGHLMLVLVIGGPTEDDCAVGQRAFLKMYNNKKYDMSGCKSNSICETIEWCLNNTQESRPTFKQLLSKLNSRHTHYLSLRGTDTRRLEANNEREEFLDHYRIPRKISVHRRTTTTSTCISLSETSGSNQDISVTSAAYLGGPIVNQMFIADTPLASPSASRKFRNDGFEKTNYVENQLYTGDETRKPFLTGGISHPGYSVMRKNSVWKFFVQARNSIRSKITKLVRKRK | not soluble
17 | MPTKGRVFVLGHSQDKDCVSRETGRRTTSITVPRDKCGVETVQHGKGAGYTSSVNIVISFHDKFLTKVDRAYNITCLYAPTGDVVSYALTVQPSLLKDIQVLAEQPSCEYEVFDVRTRRPAEIVHVNAPLEHVWTCDGTNLDLFCMTVHDCVINEGKSKRRSKIIDSEGCSLDTTRLPNLRYENNKLSARVMSKAFRFGDDVAVEFECNVRLDLRNGTSCPRPRC | not soluble
18 | MGSSHHHHHHSSGLVPRGSHMTDKLTSLRQYTTVVADTGDIAAMKLYQPQDATTNPSLILNAAQIPEYRKLIDDAVAWAKQQSNDRAQQIVDATDKLAVNIGLEILKLVPGRISTEVDARLSYDTEASIAKAKRLIKLYNDAGISNDRILIKLASTWQGIRAAEQLEKEGINCNLTLLFSFAQARACAEAGVFLISPYVGEILDWYKANTDKKEYAPAEDPGVVSVSEIYQYYKEHGYETVVMGASFRNIGEILELAGCDRLTIAPTLLKELAESEGAIERKLSYTGEVKARPARITESEFLWQHNQDPMAVDKLAEGIRKFAIDQEKLEKMIGDLL | soluble
19 | EHLPKLQPRPYSCASSSLFHPGKLHFVFNIVEFLSTATTEVLRKGVCTGWLALLVASVLQPNIHASHEDSGKALAPKISISPRTTNSFHLPDDPSIPIIMVGPGTGIAPFIGFLQHREKLQEQHPDGNFGAMWLFFGCRHKDRDYLFRKELRHFLKHGILTHLKVSFSRDAPVGEEEAPAKYVQDNIQLHGQQVARILLQENGHIYVCGDAKNMAKDVHDALVQIISKEVGVEKLEAMKTLATLKEEKRYLQDIWS | soluble
20 | GQEVTVSCAEGDTGFIYAGLLDVQITDVALDNMPKAPVKVMMNVGNPELAFSFANLPSEGIGLARMEFIINRQIGIHPKALLEFDKQDDELKAEITRRIAGYASPVDFYVDKIAEGVATLAASVYPRKTIVRMSDFKSNEYANL | not soluble
21 | MGSDKIHHHHHHMQLQELHMLVVLAEELNMRKAAERLFVSQPALSQRLQTIEKAWGTKIFLRSQKGLTVTPAGEKIIQFANDVTLEQERIRENIDELEGEIHGTLKLAVASIIGQHWLPKVLKTYVEKYPNAKISLITGWSSEMLKSLYEDQVHIGIIRGNPEWKGRKDYLMTDHLYLVDTEISCIEDIAHTERPFIQFKSDSTYFQEIQHWWHQKFKTSPKQTILVDQIETCKQMALHGIGYAILPSVTLQNEDKVNKMPLLDMKGHPIGRDTWLLGYEPAFELKQVQAFVQVIKDMLDQENPF | not soluble
